This sample holds only a part of the variants without activity.
B1: TPR 5TU (parent)
chain: GGAUCUUCUCGAUCUAACAAAAAAGACAAAUCUGCCACAAAGCUUGAGAGCAUCUUCGGAUGCAGAGGCGGCAGCCUUCGGUGGCGCGAUAGCGCCAACGUUCUCAACUAUGACACGCAAAACGCGUGCUCCGUUGAAUGGAGUUUAUCAUG

Variants of: B1
Experiment: polymerase ribozyme fitness, log enrichment relative to wild type (log ratio); higher = more active; in vitro selection for triplet polymerase activity
How it was run: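 After PCR construction and transcription, each subunit's mutant library from a heterodimeric triplet polymerase ribozyme was annealed with a biotinylated primer, the partner subunit and triplets. Incubation was frozen, at −7 °C, and extended constructs were gel-excised, bound to streptavidin beads and amplified by RT-PCR, in one selection round done in triplicate. Fitness is the logarithm of a genotype's enrichment divided by that of the wild type, from inverse-variance-weighted replicate averages of Illumina-sequenced inputs and outputs. The base of the logarithm is 2, and genotypes needed ≥10 input reads and ≥1 read per output.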

| Variant | polymerase ribozyme fitness (log ratio) |
| --- | --- |
| GGAUCUUCUCGAUCUAACAAAAAAGACAAAUCUGCCCCAAAGCUUGAGAGCAUCUUCGGAUGCAGAGGCGGCAGCCUUCGGUGGCUUGAUAGCGCCAACGUUCUCAAUUAUGGCACACAAAACGCGUGCUCCGUUGAAUGGAGUUUAUCAUG | ≤ -4.2 |
| GGAUCUUCUCGAUCUAACAAAAUAGACAAAUCUGCCACAAAGCUUGAGAGCAUCUUCGGAAGCAGAGGCGGCAGCCUUCGGUGGCGCGAUAGCGCCAACGUUCUCAUCUAUGACGCGCAAAACGCGUGCUCCGUUGAAUGGAGUUUAUCAUG | ≤ -4.2 |
| GGAUCUUCUCGGUAUAACAAAAAAGACAAAUCUGCCACAAAGCUUGAGAGCAUCUUAGGAUGCAGAGGCGGCAGCCUUCGGUGGGGCGAUAGCGCCAACGUUCUCAACUAUGACACGCAAAACGCGUGCUCCGUUGAAUGGAGUUUAUCAUG | -3.75 |
| GGAUCUUCUCGUUCUAACAAAAAAGACAAAUCUGCCACAAAGCUUGAGAGCAUCUUCGGAUGCAGAGGCGGCAGCCUUCGGUGGCGCGAUAGCGCCAACGUUCUCAACUAUGACACGUCAAACGCGUGCUCCGUUAAAUGGACUUUAUCAUG | -3.19 |
| GGAUCUUCUCGAUCUAACAAAAAAGACAAUUCUGCCACAAAGCUUGAGAGCAUCUUCGGAUGCAGAGGCGGCAGCCUUCGGUGGCGUGAUAGCGCCAACGUUCUCAACUAUGACACGCAAAACGCGUGCUCCGUUGAAUGGAGUUUAUCAUG | -3.22 |
| GGAUCUUCUCGAUCUAACAAAAACGACAAAUCUGCCACAAAGUUUGAGAGCAUCUUCGGAUGCAGAGGCGGCAGCCUUCGGUGGCGCGAUAGGGCCAACGUUCUCAACUAUGACACGCAAAACGCGUGCUCCGUUGAAUGUAGUUUAUCAUG | ≤ -4.2 |
| GGAGCUUCUCGAUCUAACAAAAAAGACAAAACUGCCACAAAGCUUGAGAGCAUUUUCGGAUGCAGAGGCGGCAGCCUUCGGUGGCCCGAUAUCGCCAACGUUCUCAACUAUGACACGCAAAACGCGUGCUCCGUUGAAUGGAGUUUAGCAUG | ≤ -4.2 |
| GGAUCUUCUCGAUCUAGCAAAAAAGACAAAUCUGCCACAAAGCUUGAGAUCAUCUUCGGAUGCAGAGGCGGCAGCCUUCGGUGGCGCGAUAGCGUCAACGUUCUCAACUAUGACACGCAAAACCCGUGCUCCGUUGAAUGAAGUUUAUCAUG | -0.476 |
| GGAUCUUCACGUUCUAACAAAAAAGACAAAUCUGCCACAAAGCUUGAGAGCAUCUUCGGAUGCAGAGGCGGCAGCCUUCGGUGGUGCCAUAGCGCCAACGUUCUCAACUAUGACACGCAAAACGCGUGCUCCGUUGAAUGGAGUUUAGCAUG | ≤ -4.2 |
| GGAUCUUCUCGAUCUAACAAAAAAGACAAAUCUGCCACAAAGCUUGAGAGCAUCUUCGGAUGCAGAGGCGGCAGCCUUCGGUGGCGCGAUAGCGCCAACGUUCUCAACUAUGACACGUAGAACGCGUGCUCCGUUGAAUGGACUUUAUCAUG | -2.13 |
| GGAUAUUCUCGAUCUAACAUAAAAGACAAAUCUGUCACAAAGCUUGAGAGCAUCUUCGGAUGCAGAGGCGGCAGCCUUCGGUGGCGCGAUCGCGCCAACGAUCUGAACUAUGACACGCAAAACGCGUGCUCCGUUGAAUGGAGUGUAUCAUG | ≤ -4.2 |
| GGAUCUUCUCGAUCUAACAAAAAAGACAAAUCUGCCACAAAGCUUGAGAGCAUCUUCGGAUGCAGAGGCGGCAGCCUUCGGUGGCGCGAUAGCGCCAACGUUCUCAACUAUGACACGCGAAACGAGUGCUCCGUUGAAUGGAGUUUAUCAUG | 0.204 |
| GGAUCUUCUCGAACUAGCAAAAAAGACAAAUCUGCCACAAAGCUUGAGCGCAUCUUCGGAUGCAGAGGCGGCAGCCUUCGGUGGCGCGAUAGCGCCAACGUUCUCAGCUAUGACACGCAAAACGCGUGCUCCGUUGAAUGGAGUUUAUCAUG | ≤ -4.2 |
| GGAUCUUCUCGAUCUAACAAAAAAGACAAAUCUGCCACAAAGCUUGAGAGCAUCUUCGGAUGCAGAGGCGGAAGCCUUCGGUGGCGCGAUAGGGGCAACGUUCUCAACUAUGACACGCAAAACGCGUGCUCCGUUGAAUGGAGUUUAUCAUG | ≤ -4.2 |
| GGAUCUUCUCGAUCUAACAAAAAAGACAAAUCUGCCACAAAGCUUGAGUGCAUCUUCCGAUGCAGAGGCGGCAGGCUUCGGUGGCGCGAUAGCGCCAACGUUCUCAACUAUGACACGGAAAACACGUGCUCCGUUGAAUGGAGUUUAUCAUG | ≤ -4.2 |
| GGAUCUUCUCAAUCUAACAAAAAAGACAAAUCUGCCACAAAGCUUGAGAGCAUCGUCGGAUGCAGAGGCGGCACCCCUCGGUGGCGCGAUAGCGCCAUCGUUCUCAACUAUGACCCGCAAAACGCGUGCUCCGUUGAAUGGAGUUUAUCAUG | ≤ -4.2 |
| GGAUCUUCUCGAUCUAACAAAAAAGACAAAUCUGCCACAAAGCUUGAGAGCAUCUGCGGAUGCAGAGGUGGCUGCCUUCGGUGGCGCGAUAGCGCCAACGUUCUCAACUAUGACACGCAAAACGCGUGCUCCGCUGAAUGUAGUUAAUCAUG | -2.72 |
| GGAUAUUCUCGAUCUAACAAAAAAGACAAAUCUGCCACAAAGCUUGAGAGCAUCUUAGGAUGCAGAGGCGGCAGCCUUCGGUGGCGCGAUAGCGCCAACGUUCUCAACUAUGACACGCUAAACGCGUGCUCCGUUGGAUGGAGUUGAUCAUG | -2.37 |
| GGAUCUUCUCGAUCUAACAAAAAAGACAUAUCUGCCACAAAGCUUGAGAGCGUCCUCGGAUGCAGAGGCGGCAGCCUUCGGUGGCGCGAUAGCGCCAACGUUCUCAACUAUGACACGCAAAACGCGUGCUCCGAUGAAUGGAGUUUAUCAUG | ≤ -4.2 |

From the RNAGym collection of RNA variant scans (doi:10.1073/pnas.2313332121)
